According to publication PMC5993284, “Peptide inhibitors of the anaphase promoting-complex that cause sensitivity to microtubule poison” (PLoS ONE, 2018):
Ends that are not written are not given here. * marks the point of attachment. Biotin = O=C1N[C@H]2[C@H](CS[C@H]2CCCCC(=O)*)N1

Columns and labels:
[1] = molecular target: Anaphase Promoting-Complex/Cyclosome (APC/C) isolated through Cdc16-TAP and kept on IgG beads (S. cerevisiae | S. cerevisiae (endogenous in yeast)) (UniProt P09798)
[2] = test system: Cdc20; test: Avidin-bead pull-down of full-length Cdc20 made by IVT/T; type: binding, Saccharomyces cerevisiae; conditions: biotinylated form; Avidin beads; rabbit reticulocyte lysate; Western blot; n = 3
Procedure: To determine if Tyc1 could interact directly with the APC/C a pure N-terminal biotinylated form of Tyc1 was incubated with purified APC/C. […] Thus, like Mad2-binding motif peptides, unexpectedly Tyc1 protein binds to and inhibits APC/C when present in excess leading to a microtubule poison sensitivity phenotype in vivo.
Supplementary file pone.0198930.s008.tif: S8 Fig Tyc1 can pull-down recombinant Cdc20 synthesized by IVT/T. A) A Western blot displaying the detection of Cdc20 protein made by IVT/T (left), where the epitope tag is at the N-terminus of the ORF. The IVT/T reaction yields a series of protein products that display full-length and lower molecular weights, potentially the result of pre-mature translation termination. An Avidin-bead pull-down using a biotinylated-Tyc1 (Bio-Tyc1) is shown (right). […] B) An Avidin-bead pull-down using a biotinylated-Tyc1-mut1 (Bio-Tyc1-mut1) (middle) and biotinylated-Tyc1-mut2 (Bio-Tyc1-mut2) are shown (right). […] (TIF) Click here for additional data file.

[3] = molecular target: Anaphase Promoting-Complex/Cyclosome (APC/C) isolated through Cdc16-TAP and kept on IgG beads (S. cerevisiae | S. cerevisiae (endogenous in yeast)) (UniProt P09798); remark: listed apart in the source
[4] = test system: APC/C; test: APC/C activity promoted by mutant Cdc20 alleles (Pds1 remaining); type: biochemical, Saccharomyces cerevisiae
Procedure: (§1) The production of Cdc20 or Cdh1 was prepared by IVT/T reactions, where 16 μL of rabbit reticulocyte lysate, 20 μM L-methionine, 0.4 μg of plasmid DNA, and a volume of nuclease-free ddH2O for a total volume of 20 μL. This freshly synthesized Cdc20 or Cdh1 protein was used directly in all APC/C assays after a 1-hour synthesis reaction at room temperature. The APC/C was purified for enzyme assays from 1 mL of TAP-tagged Cdc16 yeast extract (SCSY51) where extract was mixed with 50 μL 50:50 slurry magnetic beads (Invitrogen, Norway) for 2 hours at 4 °C. After incubation, the beads were washed with 3 mL APC/C wash buffer (200 mM of HEPES, 150 mM of NaCl and 10% (v/v) of glycerol). APC/C bound to IgG magnetic beads was used directly in the enzyme assays.
(§2) APC/C assays were performed by adding the reaction contents in following order: 4.3 μL of QAH buffer, 20 μL of rabbit reticulocyte lysate containing Cdc20 or Cdh1 with or without an additional volume of recombinant checkpoint protein(s) or inhibitor peptides, 2.4 μL ubiquitin aldehyde (Boston Biochem, USA), APC/C, 16 μL pre-charged E1/E2/ATP/ubiquitin mix, and 13.3 μL of ^35S-Pds1 with QAH buffer (20 mM HEPES at pH 8.0, 100 mM NaCl, and 1 mM MgCl2). The E1/E2/ATP/ubiquitin mix were pre-charged by mixing 1 μL of E1 (Boston Biochem, USA), 1 μL of E2 (Boston Biochem, USA), 14.4 μL of ATP, 14.4 μL of […] (Boston Biochem, USA), and 17.2 μL of QAH buffer and incubated for 15 minutes at room temperature. Approximately 15 μL of samples were taken out at each time point, and the reaction was stopped by the addition of 2x protein sample buffer (125 mM Tris-HCl pH 6.8, 4% SDS, 20% glycerol, and 0.002% bromophenol blue, with 10% (final v/v) 2-mercaptoethanol added in fresh directly before use).
For APC/C activity assays dried-gels were exposed on a phosphor screen cassette to detect radio-labeled protein. The phosphor screen was scanned by a Typhoon phosphor-imager (GE Healthcare Bio-Sciences, USA), and radio-labeled protein bands in gels were quantified by employing the ImageQuant software (GE Healthcare Bio-Sciences, USA) according to the manufacturer’s protocols. Data were expressed as mean ± standard deviation, and was analyzed using Student’s t-test. Graphs were created using Kaliedograph 4.0 (Synergy Software, USA) and estimates of best-fit curves of a 4-parameter Hill equation were generated to obtain estimates for the median inhibitory concentrations (IC50) and Hill coefficients (Hc) using IgorPro 6.01 (Wavemetrics, USA).
By sequence alignment and amino acid homology alone, the budding yeast KILR-motif may be defined as 201-RILQ-204 (Fig 1A). However, the next residue, Tyrosine Y205 had previously been isolated in a genetic screen for spindle checkpoint by-pass alleles of Cdc20 [21], indicating this Y205 residue may be a target of the spindle checkpoint inhibition, and thus might also be a functional KILR-motif residue that contributes to APC/C activation. To clarify this possibility, we took the initial step to characterize several of the previously isolated spindle checkpoint by-pass mutant alleles of Cdc20 [21], and also Cdc20 mutants in the two highly conserved residues within the Mad2-binding motif, the aspartic acid at D197 of unknown function and the highly conserved Leucine L203 within the KILR-motif based on sequence alignment and homology. […]

[5] = test system: APC/C; test: APC/C activity promoted by mutant Cdc20 alleles in the presence of Mad2 (Pds1 remaining); type: biochemical, Saccharomyces cerevisiae; conditions: 5.0 μM Mad2, n = 3
Procedure: as §1, §2
For inhibitor titration and time-course experiments, recombinant Bub3, Mad2, Mad3, and the Mad3-Bub3 complex were expressed and purified as previously described. Inhibitory peptides were synthesized by standard procedures and purified to 99% purity by HPLC (Kelowna International Scientific Inc., Taiwan). For inhibition of APC/C the co-factor Cdc20 or Cdh1 was made fresh by IVT/T, and pure recombinant checkpoint proteins or inhibitor peptides were added to the IVT/T mixture and incubated for an additional hour at room temperature. In titrations, a dilution series of the checkpoint protein(s) were made before incubation with the Cdc20 co-factor. […]
Our first goal was to measure the ability of the mutant alleles to promote APC/C activity in vitro. To ensure any observed change in APC/C activity reflected a change in function, and not a change in the amount of Cdc20 co-factor protein produced by IVT/T, the amounts of Cdc20 protein produced by IVT/T was measured, and no significant difference was observed (S4 Table). […]

[6] = molecular target: Anaphase Promoting-Complex/Cyclosome (APC/C) isolated through Cdc16-TAP and kept on IgG beads (S. cerevisiae | S. cerevisiae (endogenous in yeast)) (UniProt P09798); remark: listed apart in the source

Anaphase Promoting-Complex/Cyclosome (APC/C) isolated through Cdc16-TAP and kept on IgG beads (S. cerevisiae | S. cerevisiae (endogenous in yeast)), sequence (P09798 whole entry, looked up, one chain of several): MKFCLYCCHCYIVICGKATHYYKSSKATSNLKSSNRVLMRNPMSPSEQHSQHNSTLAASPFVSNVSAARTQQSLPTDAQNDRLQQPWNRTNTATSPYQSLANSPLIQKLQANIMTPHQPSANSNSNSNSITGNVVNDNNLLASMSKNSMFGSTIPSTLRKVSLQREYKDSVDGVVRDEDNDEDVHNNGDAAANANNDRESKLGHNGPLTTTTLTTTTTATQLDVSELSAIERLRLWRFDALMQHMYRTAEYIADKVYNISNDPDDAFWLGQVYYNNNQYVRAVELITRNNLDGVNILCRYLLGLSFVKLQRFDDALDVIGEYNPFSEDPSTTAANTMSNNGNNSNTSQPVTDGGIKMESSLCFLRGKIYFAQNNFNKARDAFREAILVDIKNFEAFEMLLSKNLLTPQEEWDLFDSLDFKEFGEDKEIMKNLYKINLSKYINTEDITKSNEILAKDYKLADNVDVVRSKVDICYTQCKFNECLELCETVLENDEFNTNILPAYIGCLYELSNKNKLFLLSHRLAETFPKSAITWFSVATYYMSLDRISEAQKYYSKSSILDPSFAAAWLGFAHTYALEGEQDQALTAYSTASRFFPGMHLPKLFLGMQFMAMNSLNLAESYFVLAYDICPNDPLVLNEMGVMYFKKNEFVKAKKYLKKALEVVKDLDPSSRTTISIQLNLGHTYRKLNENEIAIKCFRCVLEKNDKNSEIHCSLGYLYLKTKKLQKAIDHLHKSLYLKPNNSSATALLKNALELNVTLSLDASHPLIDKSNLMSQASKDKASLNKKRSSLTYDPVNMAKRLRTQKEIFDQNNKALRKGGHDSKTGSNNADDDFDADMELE

## non-biotinylated PQ65 (Cdc20 169–232) (from UniProt P26309 169-232) (peptide)
[1]
  inhibition of APC/C^Cdc20 activity in vitro (35S-Pds1 substrate), serial dilution of PQ65; blocks the binding of co-factor Cdc20 to APC/C: < 50 µM

## Bio-Tyc1: biotinylated-Tyc1 (Biotin-MKVLDDWFSRKFSKAVHGNNHGTISLSTLSYIRVHKLVK)
[2]
  pull-down of full-length Cdc20 from IVT/T lysate (in words): Both full-length and lower molecular weight forms of Cdc20 were observed

## non-biotinylated Tiny Yeast Comet 1 (Tyc1) (natural protein)
[3]
  inhibition of APC/C^Cdc20 activity in vitro (35S-Pds1 substrate), titration of Tyc1; blocks the binding of co-factor Cdc20 to APC/C: 50 µM

B1: Cdc20-127 (Y205N): spindle checkpoint by-pass mutant allele of Cdc20, Y205N (protein, UniProt P26309 1-610, looked up, variant Y205N)
APC/C activator protein CDC20: MPESSRDKGNAAISGNRSVLSIASPTKLNILSSDWSRNQGKVSKNSLKRSSSLNIRNSKRPSLQASANSIYSRPKITIGAPPLIRRDSSFFKDEFDAKKDKATFSAYSSRSYPTIGSESVVSQTSLSQPTTSREVDEQFTVAADRYIPILQGASQNKVDPETLHEALPPPNASPISHLRAQTKIVFKQNVAEACGLDMNKRILQNMPEPPKCSSLRQKSYIMKKRTHYSYQQEQKIPDLIKLRKINTNPERILDAPGFQDDFYLNLLSWSKKNVLAIALDTALYLWNATTGDVSLLTDFENTTICSVTWSDDDCHISIGKEDGNTEIWDVETMSLIRTMRSGLGVRIGSLSWLDTLIATGSRSGEIQINDVRIKQHIVSTWAEHTGEVCGLSYKSDGLQLASGGNDNTVMIWDTRTSLPQFSKKTHTAAVKALSWCPYSPNILASGGGQTDKHIHFWNSITGARVGSINTGSQVSSLHWGQSHTSTNGGMMNKEIVATGGNPENAISVYNYETKFKVAEVVHAHEARICCSQLSPDGTTLATVGGDENLKFYKIFDPRCTGRSREDGLMDGMLGLIGKEGCRTNDKENRSKNSSEIHTRRPSSTSQYLIR
[4]; vs wild type Cdc20, n = 3
  ability of mutant Cdc20 to promote APC/C activity (in words): consistently displayed a decrease in APC activity
[4]; vs wild type Cdc20, n = 3, listed as Cdc20-127
  ability of mutant Cdc20 to promote APC/C activity (in words): displayed decreased APC/C activity
[5]
  ability of mutant Cdc20 to promote APC/C activity in the presence of Mad2 (in words): consistently displayed APC activity in the presence of Mad2
[5]; listed as Cdc20-127
  ability of mutant Cdc20 to promote APC/C activity in the presence of Mad2 (in words): promote APC/C activity at the same level as control reactions even in the presence of 5.0 μM Mad2

B2: non-biotinylated DQ36 (Cdc20 197–232) (peptide)
peptide: DMNKRILQYMPEPPKCSSLRQKSYIMKKRTHYSYQQ
modifications: not fully specified
[6]
  inhibition of APC/C^Cdc20 activity in vitro (35S-Pds1 substrate), titration of DQ36; blocks the binding of co-factor Cdc20 to APC/C: 150 µM
